From the supplement of paper PMC12667976

B1: library; numbered along this chain (parent)
chain: MATDAALRRLLRLHRTEIAVAVDSAFPLLHALADHDVVPEDKFQETLHLKEKEGCPQAFHALLSWLLTQDSTAILDFWRVLFKDYNLERYGRLQPILDSFPKDVDLSQPRKGRKPPAVPKALVPPPRLPTKRKASEEARAAAPAALTPRGTASPGSQLKAKPPKKPESSAEQQRLPLGNGIQTMSASVQRAVAMSSGDVPGARGAVEGILIQQVFESGGSKKCIQVGGEFYTPSKFEDSGSGKNKARSSSGPKPLVRAKGAQGAAPGGGEARLGQQGSVPAPLALPSDPQLHQKNEDECAVCRDGGELICCDGCPRAFHLACLSPPLREIPSGTWRCSSCLQATVQEVQPRAEEPRPQEPPVETPLPPGLRSAGEEVRGPPGEPLAGMDTTLVYKHLPAPPSAAPLPGLDSSALHPLLCVGPEGQQNLAPGARCGVCGDGTDVLRCTHCAAAFHWRCHFPAGTSRPGTGLRCRSCSGDVTPAPVEGVLAPSPARLAPGPAKDDTASHEPALHRDDLESLLSEHTFDGILQWAIQSMARPAAPFPS

Variants of: B1
Test: AIRE transcriptional activation functional score (insulin promoter-GFP; nonsense median 0, synonymous median 1) (normalised score); higher = higher AIRE activity (more reporter activation)
Settings: with insulin promoter-GFP reporter in HEK293
Description: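 Deep mutational scan of full-length human AIRE (codon-optimized cDNA, DT-POPCode NNN libraries over three regions) integrated at a Bxb1 landing pad in HEK293 cells carrying an insulin core promoter-GFP reporter at a Flp-In site. Cells were sorted for the top 10% GFP about 14 days after transfection. Variant frequency log-ratios (select vs non-select, TileSeq) were rescaled so that the nonsense median is 0 and the synonymous median is 1, then averaged over biological replicates.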

AIRE transcriptional activation functional score, by site and new letter:
P162: H 2.88, N -1.7, E 0.27, T 0.633, G 1.1, F 1.37, C 1.41, A 0.796, L 1.04, S 0.476, Y 2.9, M 0.548, I 1.97, Q 1.54, R 0.224, W 1.26, V 0.356
P166: L 0.95, E -0.713, D 0.983, G 1.61, F 1.94, Y 1.19, Q 1.16, I 1.24, K -0.231, R 0.947, W -0.356, N 1.41, S 0.939, V 0.921, H 1.95, M 1.41, T 1.36, C 1.43, A 1.16
K159: Q 0.00224, V 1.06, L 1.18, P 0.44, N 1.33, S 0.905, R 1.48, Y 1.33, M 0.791, W 1.36, T 1.05, I 1.4
A160: L 0.749, M 0.0796, F 1.12, W 1.82, P -0.0016, N 0.242, C 1.05, I 0.857, V 1.38, Y 1.08, D 0.974, S 1.14, H 0.574, G 0.964, E -0.0286, Q -0.113, T 0.43, K -0.392, R 1.01
E167: Q 0.862, R 0.328, P 0.414, L 1.76, A 0.894, W 2.34, S 0.898, F 1.89, M 1.68, C 1.33, K 0.721, V 1.18, I 1.19, H -0.185, D 1.12, N 1.8, Y 2.17, T 0.707, G 1.02
K164: T 0.821, R 1.85, M 1.88, D -0.844, F 1.41, S 1.22, G 1.83, P 1.62, V 0.666, A 1.17, C 0.129, W 1.33, N 1.52, H 1.27, Q 0.909, I 0.719, Y 0.624, L 1.14, E 0.857
K165: S 0.597, M 1.15, E 1.01, V 0.921, I 2.29, L 0.369, G 0.47, W 1.06, T -0.814, R 0.872, F 1.23, H 1.16, C 0.37, Q 0.596, Y 0.91, A -0.0692, N 0.909, P -0.251, D 0.206
S168: F 1.44, E 0.606, D 0.307, A 0.888, C 1
P163: D -0.123, E 0.136, S 1.3, Q 1.05, W 2.35, T 0.923, R 0.66, I 1.05, N 1.73, M 0.889, G 0.723, C 1.48, A 0.36, H 0.674, K 1.29, L 0.899, F 0.944, V 0.445, Y 1.53
K161: W 0.29, M 0.88, C 1.56, T 0.898, A 0.612, Q 0.799, N 0.888, G 1.56, E 0.442, P 0.742, D 1.13, H 0.866, I 1.27, R 1.55, L 1.14, S 0.458, V 1.11, F 1.69, Y 0.674
